Data on 69 sequences can be found in the domain aggregation screens of Martell et al. (2025).

This series in a line: soluble fraction after stress (log2 fold change); higher = more stays soluble; pooled small domains, quantitative proteomics. Conditions: stress: 50 degC. In short, it runs like this:
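Pooled custom libraries of small protein domains were each held under stress at 50°C. The read-out, high-throughput quantitative proteomics, tracked how much of each protein stayed soluble. This is reported as a base-two log fold change used to indicate aggregation propensity. Higher values mean more protein remains in solution.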
With “HMDNPNVMAQVKSLLASKGLSEQEVKERLKAKGLNIDAMSDAEIAQNRSVIEQTIAELEAEKKKAG”, the “soluble fraction (log2)” value was -0.128.
The same measure for “HMDNPYEVFIPNSYIGQRLDQTLASLFPQFSRSRLQNWLASGNLLVNGKIVKPKTKILGGEQINILDPYN”: -0.339; for “HMDNTFEEVKEKLLDLLKERPLTPAEVSKRMEEDKNILAQVIQYLLEEEIIKTEDGMLSKVIG”: -0.0569; for “HMDNWYIAFNSFLSQNKLTAKNVSELTGLSKPTIDSYKQGKRKPTDENMQIIKDKLGFNISEILYN”: -0.265.
Turning to “HMDPDDEILINIMTKLLTEKQIIIKNKEIFNFLLKRINRTYEEVYNLINKMDKLSLEKKKQLTIPSIKEL”, the “soluble fraction (log2)” value is -1.21.
The value for “HMDPEEETLKNMQRMLQDSGPLKKTEFSLLAKSLGIAEKKARKLIDRGRGRFWTVESGEQKNTQLVTPIQ” was -0.0247.
The value for “HMDPERVVGQTGIVHLRIPARQHNTGKVMIEVQGSLREFDAVSEAEEIPTGTPILIVGRTEEGVFIAQPF” was -0.0467; that for “HMDPGPVLISAQVLDDLEAIRRDGSSNMLDWPAVARLAEVMGMDRTAAWVRTHHREYSAGIFRGFASD” was -1.68.
The same measure for “HMDPHEEELLRQLIRGDIAGYEVLFHKYYPTFFAFIKGMTKETVVAEDITQNIFMKVWLNRERLDAA”: -0.0635.
As to “HMDPIATLTPREREVLSLMAEGRSNGAIAAALVVGDGAVEKHVSNIFQKLELTPAEGDHRRVLAVLRWLE”, the “soluble fraction (log2)” value is -0.901.
As for “HMDPLADLFSRIRNAQMRNKKVVTSPASKLRAGILEVLAKEGYIRGYAMTQHASGKNELDIELN”, the “soluble fraction (log2)” value was -1.
With “HMDPNAITSAQVTKLQVLANEKGFAERQARLTMWAEVIGRNVGTANELTKAEAHKLIEHMDALPV”, the “soluble fraction (log2)” value is -0.488.
For the sequence “HMDPNFKYIIRIANSDVSGEQKLAYALTSIRGIGERTSNAIIQKLGLDSTQLAGKLTDKNVEDIESA”, the “soluble fraction (log2)” value is -0.027.
The value for “HMDPPQEVWDLTRSYLDSMNRPVHGHKSPQETYLRQVKSHRLPATALWDYFMAQRFHAVHATSESAA” was -0.0648.
The value for “HMDPPYKDKNLHELLLKINNLNILKKDSVIILHRHKKQKEIFPSNFKIIEQKQYGISKIIFLTVL” was 0.00254; that for “HMDPRTSSLTPQERKVLELVGGGLTNRQIAAEMFLAEKTVKNYVSSLLAKLGFERRTQAAVFIASPAF” was -0.541.
The value for “HMDPSKLVEVQEPVSMKALSEGLGIKVTELIATFAFKLKIGGKNINSMLSNDEVELVALDLERNIKVV” was 0.164; that for “HMDPTEPLFVGVVTAEPYLNIREYPTTQSKDLGDLFPGMHVNVYEIVPNWYRIDDGWVASAWVKRDWGGG” was -1.2.
“HMDPTIRRGELIDAASRLFLSKGYAATSVRDILDEVGNRTASPSVFYYYFKSKEEIYQAVLRRHSE”: the “soluble fraction (log2)” value was -0.847.
The value for “HMDPTVSGQTGSVVREIRPGVPGEVELSVPLYGIRRWQAMADGILAEGTRVTVIQAEGVRLSVRPV” was -0.0839; that for “HMDPTVTFIVQVNGRVRDKITLSSDISENEAKNVALESPKITPHISGKSLSRVIFVPGKLINLVV” was -0.578; that for “HMDPVATLTPREREVLELMAEGRTNAGIAEAMVVTEGAVEKHIQRIFAKLGLHADGGVHRRVAAVLALLG” was -1.01.
The same measure for “HMDQDIILHKVQPGDTLSKILLHYHSHQDRNKLQGLIAESMTANPFIKNPDLIYPGQLIQVPVPA”: 0.05; for “HMDQFMLQSAWLRAVQHVMKHTDDVGTQFAEEARRMHYGEADERPIRGQATSDEARALHDEGIEVMALPI”: -0.303; for “HMDQILIHLKEGIDVTDVQPMLKALDLNVRMFNRDKNIIVISVLNRELDAIPQTIAALRPWEELFDSA”: -0.00536.
The same measure for “HMDQNVSVPKLAGLQVEEANAILKSKGLHIEIIDSIYQKDAVPGAIIEQVPEENSKVKKGRAIYVSVYAK”: -0.227.
Consider “HMDQVYYDLKSLIELLPADQMEVLKMRYFEELSFKKIAQKIDVSINTALGRMRYALINLRALSKKHHID”, for which the “soluble fraction (log2)” value was -0.189.
Consider “HMDRDMGSMTDFENVRDAYLTGKVWNVGDLIEANGITGIIIRKGTNYVSYNDGDGKVHKAWLHDITL”, for which the “soluble fraction (log2)” value was -0.886.
The same measure for “HMDREILWTNYVAARKQEFIASSIDTIGAEYLDNRRFWDTQFEREWTIIAERLASGFGLTDDILSIVGSDF”: -4.12; for “HMDRETEEYELIRAKLEWLYQKQTGTIRNQTAKILHHLEIAKEEGNYYLYLKIKEEAKQWLVQASMYLD”: -0.231; for “HMDRGDVTREALIKAAIEIFGRDGFHAASTRAIAERAGANQALIGYHFRGKLGLYHATFEYIIGKI”: -0.315.
For “HMDRMINYSPIVAKVPQDDYTTKVYNIPIYSELTVVDKISEPEPLIAPIYRFKYITPEDEEIEFDIPV”, the “soluble fraction (log2)” value turned out to be 0.0278.
Turning to “HMDRMMQPETWGRVYQWITDDPQVPDREEVLTLIKYHYGDFGKLMKLLHRLNEGKAWTYLSEHIFPRM”, the “soluble fraction (log2)” value was -0.123.
Regarding “HMDRNEFVSTLRAALTGAVSPAIVEDNVRYYQNYISQEIASGKSEKEVLDGLGDPRLIARTIIDT”, the “soluble fraction (log2)” value was 0.0674.
The same measure for “HMDRNIVYSDFIRSVNQGQVSEVLVQGDNIRGRYLNGKVFQTFAPKDPSLISTLRNKGVRISAEPA”: 0.113; for “HMDRRSTTLQDIYTRIDAEEISEALELIPKLGEIEFEQNRAEIAEAAGVRPAVLDKLRKQAAKQENNKK”: -0.0355.
For “HMDRSAQVLFLEHARSRLPQRIQWAEELAELLSIGIDSAYRRIRGETALTFNEAVSVSRKYDISLDYLFK”, the “soluble fraction (log2)” value is -3.62.
In the case of “HMDRSKREKEQQELMLKVQQIFDDNQQRFGAEKIRTVLAQNGVRVSVKRVSAIMQELNLRSIR”, the “soluble fraction (log2)” value is -0.871.
The value for “HMDRVMPVPEALIGMRFDIAVSRMLGVSRSQAAAYIDRGQVSIAGRGSQRSAQKSEKLVQGDSIEVAIA” was -0.318; that for “HMDRWSLLTLTTLAGGTLRFTELKRAIGDISQRMLAQTLRTLEREGYVSRKVYATIPPKVEYRLTALGQSL” was -3.05.
The value for “HMDRYAVRAEELAAALAQYHRHVGVYPENLEDLIAPTGPRGYRGPYLSELPTNPSTSKPDWGYDPATGRVS” was 0.198.
The value for “HMDSAFVSDIRDAFDEAGVDSYRFFGTHSFKRGGVQLYRLLGVSDQEIKERGHWQTFSAYFAYVQA” was 0.218; that for “HMDSESGAIIRRAVAQLAPKFRSTIVLRLIEGYSTEETAQILQLPVGTVLSRLARAKVQLMNLLTPYKEL” was -0.126.
On to “HMDSIDIDAETKSLGPNAPQIIKGIKEWGQGLVAKGVWSDQDFEEFKVFAATANGINALNKVRKFY”, for which the “soluble fraction (log2)” value is -0.154.
The same measure for “HMDSIDVQQKKLLTDIELGNIEGIKLFLKRHNNTINFLTIKGFHPLVYAVRNNNMEIVNLFLTT”: 0.172; for “HMDSIGTQIRKLREEAEMPLRKLSALLDIDQSTLSKIERDERRANTQMIEQIAKIFKVNKEQLLVA”: -0.926.
The same measure for “HMDSKPNDLLFVYVSQLIRSLTLNSSKKDSELADELEVSISQIRIWLKKLINEQLIVKESKPVKYRWKG”: -2.95.
The value for “HMDSLARKTVNGAEFYIYPVESAEGFYSLRRKFGVSQEEVIKYNPSAQNGLKSGQVLLIPVT” was -0.176.
On to “HMDSLQDFAYEEIKKRIQNGEYAPGTKLNTQEISDSLGISRSPVLAAINRLIALGLVEATPRKGTTVA”, for which the “soluble fraction (log2)” value is 0.0527.
On to “HMDSLSGQQGRVLEEINGFLQTGKVLLNGMEWSAVSKQPEDILPVDTEVVVVRVEGAHLVVKKA”, for which the “soluble fraction (log2)” value was 0.0592.
The same measure for “HMDSPRITMDQLRIGLYVYLDLTWFQHPFAFSHFKINSEDQIKTILGLGLKSVRYDPALSDPV”: -2.67; for “HMDSQSVFADLVKSLSQKIASIPVWFEYTKNEQYDLISSYVSAKLKDLGVEFSQEEKEKFITMFMNS”: -0.267; for “HMDSRQIIAALQARYADETGITALKIKFNNVLGYFVDVPARYGDPLMKPPLSETFIHRQTLASNVRF”: -0.0732.
The value for “HMDSSITLMRMYIPKGHNWENKLISDVSMPTNSLALMIKRNGTTIIPKGDTMILAKDTLILSVPSYEPS” was -1.13; that for “HMDSSNLSLIAGVGPTIEKKLRAAGITSWEQIAAWTEADVAKYDEELNLRGRITRDEWIEQAKELLAGKPP” was -0.0993.
Turning to “HMDSTLDLVATQGGRLDQVLAEMIPEHSRNRLQHWIKAGRVLVDGQPVLEPKHKIYGGEDLAVRVD”, the “soluble fraction (log2)” value turned out to be 0.278.
The same measure for “HMDSVSAVRTTHLNSYVLLLEKDGMAAATISRYIASMKGFFEYLFREHMIEEDPAFTLKPPKV”: -0.0799; for “HMDSVVPNVVGMTAEKANKALTDAGLNVKITGATIGSGAVVHSQSIPAGTVTSKGTVVSIEMRFAAAEGD”: -0.135; for “HMDSYSILGIEKESSMEDIEKAYIDKISKIKKEVKNEKNAAAFEAVLTKAYNDILSQKENISEEQELAE”: 0.011.
The same measure for “HMDTAGSVAIVSKSVIENGFGEIKYKGTYFKAQSDVYIPKDQMVKVIGKGDEQGSFLIVEKLN”: -0.0425; for “HMDTIASESVRNRIEELISNENPKKPLSDQALVKMLQEFDIKIARRTVAKYREMLKIPPSSKRKQV”: 0.0652; for “HMDTIGSKVLAFLAGNLLDPTPFNYRFGYLYLNRTSKVIVEETDTYIDSGMRMTQEAVAEIMQKFAQ”: -3.9.
The value for “HMDTITMAGERYAVSDLEKVSGDIFEKAFGFEIDPKTADAKDVLPTMPKSDVDLFKKLSGIKP” was 0.19; that for “HMDTIYPFNPNFIDDYKGYVLGLNTNEIDRLLKYRSKGNWINSAEDFKKVTGIDDALLNKLSKSFKFPDWL” was -1.44.
“HMDTLRPLGRYQNVHLTKQELTALQSEFSDWSERIERLSSYMASTGRKYQNHAATIRLWAEKDK”: the “soluble fraction (log2)” value amounted to 0.13.
The same measure for “HMDTMINLIGLNLKKAKKELSNLGVNVKKVRYKKSSVYDEGVVIDQSIEAGRNIKNGDFITITVSSGKA”: 0.428.
The value for “HMDTNEPFAQLQLRFTDPIQYDYEVIRPVVLFSQSVTDRSDETEMPRTTVREKARQFVTEGMLGLVDK” was -0.00748.
For “HMDTNTIIGLRIKALRTEKKYTLKYLSENSGLSIGFLSQLERGMTSVAIDSLDKISKVLDVELSSFFN”, the “soluble fraction (log2)” value is -2.93.
For the sequence “HMDTPMQEAVLQRLRDKVAQAAAGSKLPTVRQLIADYGVGQHVIQAALEKLRTEGLITSHVGKGTFVG”, the “soluble fraction (log2)” value came out at 0.447.
